Results taken from patent US20240270841A1.

Target: LILRB1 expressed on the surface of human natural killer cell KHYG-1 (human) (UniProt Q8NHL6)
Assay: flow cytometry (iQue) on KHYG-1 NK cells, antibody 50 ug/mL

Chain of LILRB1 expressed on the surface of human natural killer cell KHYG-1 (human) (Q8NHL6 24-650): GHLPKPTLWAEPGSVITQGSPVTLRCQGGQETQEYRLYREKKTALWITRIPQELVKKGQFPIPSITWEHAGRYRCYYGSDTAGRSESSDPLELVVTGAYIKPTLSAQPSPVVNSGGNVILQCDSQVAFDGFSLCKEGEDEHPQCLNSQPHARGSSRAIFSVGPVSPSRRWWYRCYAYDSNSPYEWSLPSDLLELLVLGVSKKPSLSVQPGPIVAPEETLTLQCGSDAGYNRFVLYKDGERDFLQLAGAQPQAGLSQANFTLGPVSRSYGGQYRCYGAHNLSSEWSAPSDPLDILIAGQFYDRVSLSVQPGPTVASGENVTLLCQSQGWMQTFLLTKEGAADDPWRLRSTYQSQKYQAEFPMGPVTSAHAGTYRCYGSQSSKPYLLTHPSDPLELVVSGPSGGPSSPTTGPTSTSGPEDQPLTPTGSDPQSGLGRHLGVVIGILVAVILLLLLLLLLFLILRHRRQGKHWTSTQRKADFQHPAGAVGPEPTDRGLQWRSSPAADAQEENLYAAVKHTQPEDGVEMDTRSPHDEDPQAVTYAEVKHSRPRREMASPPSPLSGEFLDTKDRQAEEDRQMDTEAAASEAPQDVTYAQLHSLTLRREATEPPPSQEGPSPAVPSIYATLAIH

## human IgG4 isotype control antibody (Biolegend)
  % of population 2: 2.95%
  Mean Fluorescence Intensity: 143000
